# Results as given in PMC9891525 (PLOS Pathogens, 2023).
# Substitutions are numbered along the chain they refer to. In names and notes the source's numbering stands.
# B1: purified monoclonal antibody d7 (S97Y, D54I, N57H) (antibody, V domains shown)
# VH: QVQLVESGGGVVQPGRSLRLSCAASGFTFSNYAMYWVRQAPGKGLEWVAVISYIGSHKYYADSVKGRFTISRDNSKNTLYLQMNSLRTEDTAVYYCASGSDYGDYLLVYWGQGTLVTVSS
# VL: QSALTQPASVSGSPGQSITISCTGTSSDVGGYNYVSWYQQHPGKAPKLMIYDVSKRPSGVSNRFSGSKSGNTASLTISGLQSEDEADYYCNSLTSIYTWVFGGGTKLTVL
# B2: purified monoclonal antibody d9 (S97Y, D54L, N57H) (antibody, V domains shown)
# VH: B1 VH with I54L
# VL: B1 VL
# B3: purified monoclonal antibody A3 (N57A, L106N) (antibody, V domains shown)
# VH: B1 VH with I54D, H57A, L106N
# VL: B1 VL with Y97S
# Target: SARS-CoV-2 WT spike RBD (SARS-CoV-2, wild type, UniProt P0DTC2)
# Assay: SPR; Biacore 2000; […]; 45 μL/min, 180 s binding, […] dissociation; 1:1 binding model
# Conditions: both partners purified
Binder,Kd [nM],other [times]
B1,0.15,3
B2,0.17,3
B3,0.17,3
